Data from US20090028881A1.

How the values were obtained:
[1] = target: CCR5 mutant K171A (human) (UniProt P51681); test: alanine scanning epitope mapping; wild-type CCR5 defined as 100%
[2] = target: CCR5 mutant E172A (human) (UniProt P51681); test: as above

epitope binding (% of wild-type CCR5) [1]: 20%
epitope binding (% of wild-type CCR5) [2]: 20%
B1: <CCR5>Pz03.1C5 (antibody, V domains shown)
VH: QVQLKQSGPGLVRPSQSLSITCTVSGFPLGIFGVHWVRQSPGKGLEWLGVIWKGGNTDYNAAFMSRLRITKDNSKSQVFFRMNSLQTDDTAIYYCAKVNLADAMDYWGQGTSVIVSS
VL: DIQMTQSPASLSASVGETVTITCRASGNIHGYLAWFQQKQGKSPQLLVYNTKTLAEGVPSRFSGSGSGTQFSLKINSLQPEDFGNYYCQHHYDLPRTFGGGTKLEIKR
